This assay deals with quenched fluorescein gelatin substrate (DQ gelatin, Invitrogen D12054).

catalytic rat MMP9 (80 kD active MMP9) (enzyme), sequence (P50282 108-708 limits assumed): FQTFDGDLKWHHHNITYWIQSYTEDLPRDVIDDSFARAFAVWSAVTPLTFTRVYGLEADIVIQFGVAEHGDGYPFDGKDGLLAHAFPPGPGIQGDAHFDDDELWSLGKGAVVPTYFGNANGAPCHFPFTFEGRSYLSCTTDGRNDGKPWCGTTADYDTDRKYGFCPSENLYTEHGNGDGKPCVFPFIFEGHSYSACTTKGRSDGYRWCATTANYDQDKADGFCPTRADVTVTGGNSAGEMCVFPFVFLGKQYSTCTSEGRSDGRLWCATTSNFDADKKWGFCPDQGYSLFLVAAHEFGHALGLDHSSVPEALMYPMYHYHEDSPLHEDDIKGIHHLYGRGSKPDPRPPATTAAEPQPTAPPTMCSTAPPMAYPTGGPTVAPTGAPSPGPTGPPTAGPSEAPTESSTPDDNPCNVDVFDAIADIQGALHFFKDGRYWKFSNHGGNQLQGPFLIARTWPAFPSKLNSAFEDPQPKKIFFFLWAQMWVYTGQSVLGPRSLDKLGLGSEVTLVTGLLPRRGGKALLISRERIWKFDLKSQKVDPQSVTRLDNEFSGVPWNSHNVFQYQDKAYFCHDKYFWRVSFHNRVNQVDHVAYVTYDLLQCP

As to “catalytic rat MMP9 (80 kD active MMP9) (enzyme)”, the gelatinase activity by in situ zymography, Intensity (RLU × 10^6), Mean worked out at 1.09e+08 RLU.

For the origin of these results see patent US20130040994A1.
